Results reported in patent publication US11319341B2, “Immune-stimulating soluble doxorubicin-conjugated complex” (Yafei (Shanghai) Biopharmaceutical Co., Ltd., priority 2016, dated 2022).
Residues, ends and D or L forms follow the SMILES beside them. *: point of attachment. Doxorubicin(3'-N) = COc1cccc2c1C(=O)c1c(O)c3c(c(O)c1C2=O)C[C@@](O)(C(=O)CO)C[C@@H]3O[C@H]1C[C@H](N*)[C@H](O)[C@H](C)O1; Mal(CH2CH2O)6CH2CH2CO = O=C1C=CC(=O)N1CCOCCOCCOCCOCCOCCOCCC(=O)*; MaleimidoPEG4propanoyl = O=C1C=CC(=O)N1CCOCCOCCOCCOCCC(=O)*; Butanoyl(4-maleimido) = O=C1C=CC(=O)N1CCCC(=O)*; Propanoyl(3-maleimido) = O=C1C=CC(=O)N1CCC(=O)*; X1 = O=C1C=CC(=O)N1CCOCCOCCOCCC(=O)*; PEG6 = NCCOCCOCCOCCOCCOCCOCCC(=O)O; X2 = O=C1C=CC(=O)N1CCOCCOCCC(=O)*; PEG4 = NCCOCCOCCOCCOCCC(=O)O; PEG3 = NCCOCCOCCOCCC(=O)O; PEG2 = NCCOCCOCCC(=O)O

assay: Water solubility of freeze-dried compounds in water (observation and HPLC); conditions: not given

Row | SMILES | solubility [mg/mL]
1 | COc1cccc2c1C(=O)c1c(O)c3c(c(O)c1C2=O)C[C@@](O)(C(=O)CO)C[C@@H]3O[C@H]1C[C@H](NC(=O)[C@H](CC(C)C)NC(=O)[C@H](CC(N)=O)NC(=O)[C@H](C)NC(=O)[C@H](C)NC(=O)[C@H](CCC(=O)O)NC(=O)CCOCCOCCN2C(=O)C=CC2=O)[C@H](O)[C@H](C)O1 [QHL-021] (X2-EAANL-{Doxorubicin(3'-N)}) | > 20
2 | COc1cccc2c1C(=O)c1c(O)c3c(c(O)c1C2=O)C[C@@](O)(C(=O)CO)C[C@@H]3O[C@H]1C[C@H](NC(=O)[C@H](CC(C)C)NC(=O)[C@H](CC(N)=O)NC(=O)[C@H](C)NC(=O)[C@H](C)NC(=O)[C@H](CCC(=O)O)NC(=O)CCOCCOCCOCCN2C(=O)C=CC2=O)[C@H](O)[C@H](C)O1 [QHL-022] (X1-EAANL-{Doxorubicin(3'-N)}) | > 20
3 | COc1cccc2c1C(=O)c1c(O)c3c(c(O)c1C2=O)C[C@@](O)(C(=O)CO)C[C@@H]3O[C@H]1C[C@H](NC(=O)[C@H](CC(C)C)NC(=O)[C@H](CC(N)=O)NC(=O)[C@H](C)NC(=O)[C@H](C)NC(=O)[C@H](CCC(=O)O)NC(=O)CCOCCOCCOCCOCCN2C(=O)C=CC2=O)[C@H](O)[C@H](C)O1 [QHL-023] (MaleimidoPEG4propanoyl-EAANL-{Doxorubicin(3'-N)}) | > 25
4 | COc1cccc2c1C(=O)c1c(O)c3c(c(O)c1C2=O)C[C@@](O)(C(=O)CO)C[C@@H]3O[C@H]1C[C@H](NC(=O)[C@H](CC(C)C)NC(=O)[C@H](CC(N)=O)NC(=O)[C@H](C)NC(=O)[C@H](C)NC(=O)[C@H](CCC(=O)O)NC(=O)CCOCCOCCOCCOCCOCCOCCN2C(=O)C=CC2=O)[C@H](O)[C@H](C)O1 [QHL-024] ({Mal(CH2CH2O)6CH2CH2CO}-EAANL-{Doxorubicin(3'-N)}) | > 30
5 | COc1cccc2c1C(=O)c1c(O)c3c(c(O)c1C2=O)C[C@@](O)(C(=O)CO)C[C@@H]3O[C@H]1C[C@H](NC(=O)[C@H](CC(C)C)NC(=O)[C@H](CC(N)=O)NC(=O)[C@H](C)NC(=O)[C@H](C)NC(=O)[C@H](CC(=O)O)NC(=O)CCOCCOCCN2C(=O)C=CC2=O)[C@H](O)[C@H](C)O1 [QHL-033] (X2-DAANL-{Doxorubicin(3'-N)}) | > 20
6 | COc1cccc2c1C(=O)c1c(O)c3c(c(O)c1C2=O)C[C@@](O)(C(=O)CO)C[C@@H]3O[C@H]1C[C@H](NC(=O)[C@H](CC(C)C)NC(=O)[C@H](CC(N)=O)NC(=O)[C@H](C)NC(=O)[C@H](C)NC(=O)[C@H](CC(=O)O)NC(=O)CCOCCOCCOCCN2C(=O)C=CC2=O)[C@H](O)[C@H](C)O1 [QHL-034] (X1-DAANL-{Doxorubicin(3'-N)}) | > 20
7 | COc1cccc2c1C(=O)c1c(O)c3c(c(O)c1C2=O)C[C@@](O)(C(=O)CO)C[C@@H]3O[C@H]1C[C@H](NC(=O)[C@H](CC(C)C)NC(=O)[C@H](CC(N)=O)NC(=O)[C@H](C)NC(=O)[C@H](C)NC(=O)[C@H](CC(=O)O)NC(=O)CCOCCOCCOCCOCCN2C(=O)C=CC2=O)[C@H](O)[C@H](C)O1 [QHL-035] (MaleimidoPEG4propanoyl-DAANL-{Doxorubicin(3'-N)}) | > 25
8 | COc1cccc2c1C(=O)c1c(O)c3c(c(O)c1C2=O)C[C@@](O)(C(=O)CO)C[C@@H]3O[C@H]1C[C@H](NC(=O)[C@H](CC(C)C)NC(=O)[C@H](CC(N)=O)NC(=O)[C@H](C)NC(=O)[C@H](C)NC(=O)[C@H](CC(=O)O)NC(=O)CCOCCOCCOCCOCCOCCOCCN2C(=O)C=CC2=O)[C@H](O)[C@H](C)O1 [QHL-036] ({Mal(CH2CH2O)6CH2CH2CO}-DAANL-{Doxorubicin(3'-N)}) | > 30
9 | COc1cccc2c1C(=O)c1c(O)c3c(c(O)c1C2=O)C[C@@](O)(C(=O)CO)C[C@@H]3O[C@H]1C[C@H](NC(=O)[C@H](CC(C)C)NC(=O)[C@H](CC(N)=O)NC(=O)[C@H](C)NC(=O)[C@H](C)NC(=O)[C@H](CCC(=O)O)NC(=O)CCOCCOCCNC(=O)CCN2C(=O)C=CC2=O)[C@H](O)[C@H](C)O1 [QHL-039] ({Propanoyl(3-maleimido)-PEG2}-EAANL-{Doxorubicin(3'-N)}) | > 20
10 | COc1cccc2c1C(=O)c1c(O)c3c(c(O)c1C2=O)C[C@@](O)(C(=O)CO)C[C@@H]3O[C@H]1C[C@H](NC(=O)[C@H](CC(C)C)NC(=O)[C@H](CC(N)=O)NC(=O)[C@H](C)NC(=O)[C@H](C)NC(=O)[C@H](CC(=O)O)NC(=O)CCOCCOCCNC(=O)CCN2C(=O)C=CC2=O)[C@H](O)[C@H](C)O1 [QHL-042] ({Propanoyl(3-maleimido)-PEG2}-DAANL-{Doxorubicin(3'-N)}) | > 20
11 | COc1cccc2c1C(=O)c1c(O)c3c(c(O)c1C2=O)C[C@@](O)(C(=O)CO)C[C@@H]3O[C@H]1C[C@H](NC(=O)[C@H](CC(C)C)NC(=O)[C@H](CC(N)=O)NC(=O)[C@H](C)NC(=O)[C@H](C)NC(=O)[C@H](CCC(=O)O)NC(=O)CCOCCOCCOCCNC(=O)CCN2C(=O)C=CC2=O)[C@H](O)[C@H](C)O1 [QHL-045] ({Propanoyl(3-maleimido)-PEG3}-EAANL-{Doxorubicin(3'-N)}) | > 20
12 | COc1cccc2c1C(=O)c1c(O)c3c(c(O)c1C2=O)C[C@@](O)(C(=O)CO)C[C@@H]3O[C@H]1C[C@H](NC(=O)[C@H](CC(C)C)NC(=O)[C@H](CC(N)=O)NC(=O)[C@H](C)NC(=O)[C@H](C)NC(=O)[C@H](CC(=O)O)NC(=O)CCOCCOCCOCCNC(=O)CCN2C(=O)C=CC2=O)[C@H](O)[C@H](C)O1 [QHL-048] ({Propanoyl(3-maleimido)-PEG3}-DAANL-{Doxorubicin(3'-N)}) | > 20
13 | COc1cccc2c1C(=O)c1c(O)c3c(c(O)c1C2=O)C[C@@](O)(C(=O)CO)C[C@@H]3O[C@H]1C[C@H](NC(=O)[C@H](CC(C)C)NC(=O)[C@H](CC(N)=O)NC(=O)[C@H](C)NC(=O)[C@H](C)NC(=O)[C@H](CCC(=O)O)NC(=O)CCOCCOCCOCCOCCNC(=O)CCN2C(=O)C=CC2=O)[C@H](O)[C@H](C)O1 [QHL-051] ({Propanoyl(3-maleimido)-PEG4}-EAANL-{Doxorubicin(3'-N)}) | > 25
14 | COc1cccc2c1C(=O)c1c(O)c3c(c(O)c1C2=O)C[C@@](O)(C(=O)CO)C[C@@H]3O[C@H]1C[C@H](NC(=O)[C@H](CC(C)C)NC(=O)[C@H](CC(N)=O)NC(=O)[C@H](C)NC(=O)[C@H](C)NC(=O)[C@H](CC(=O)O)NC(=O)CCOCCOCCOCCOCCNC(=O)CCN2C(=O)C=CC2=O)[C@H](O)[C@H](C)O1 [QHL-054] ({Propanoyl(3-maleimido)-PEG4}-DAANL-{Doxorubicin(3'-N)}) | > 25
15 | COc1cccc2c1C(=O)c1c(O)c3c(c(O)c1C2=O)C[C@@](O)(C(=O)CO)C[C@@H]3O[C@H]1C[C@H](NC(=O)[C@H](CC(C)C)NC(=O)[C@H](CC(N)=O)NC(=O)[C@H](C)NC(=O)[C@H](C)NC(=O)[C@H](CCC(=O)O)NC(=O)CCOCCOCCOCCOCCOCCOCCNC(=O)CCN2C(=O)C=CC2=O)[C@H](O)[C@H](C)O1 [QHL-057] ({Propanoyl(3-maleimido)-PEG6}-EAANL-{Doxorubicin(3'-N)}) | > 25
16 | COc1cccc2c1C(=O)c1c(O)c3c(c(O)c1C2=O)C[C@@](O)(C(=O)CO)C[C@@H]3O[C@H]1C[C@H](NC(=O)[C@H](CC(C)C)NC(=O)[C@H](CC(N)=O)NC(=O)[C@H](C)NC(=O)[C@H](C)NC(=O)[C@H](CC(=O)O)NC(=O)CCOCCOCCOCCOCCOCCOCCNC(=O)CCN2C(=O)C=CC2=O)[C@H](O)[C@H](C)O1 [QHL-060] ({Propanoyl(3-maleimido)-PEG6}-DAANL-{Doxorubicin(3'-N)}) | > 25
17 | COc1cccc2c1C(=O)c1c(O)c3c(c(O)c1C2=O)C[C@@](O)(C(=O)CO)C[C@@H]3O[C@H]1C[C@H](NC(=O)[C@H](CC(C)C)NC(=O)[C@H](CC(N)=O)NC(=O)[C@H](C)NC(=O)[C@H](C)NC(=O)[C@H](CCC(=O)O)NC(=O)CCOCCOCCNC(=O)CCCN2C(=O)C=CC2=O)[C@H](O)[C@H](C)O1 [QHL-063] ({Butanoyl(4-maleimido)-PEG2}-EAANL-{Doxorubicin(3'-N)}) | > 15
18 | COc1cccc2c1C(=O)c1c(O)c3c(c(O)c1C2=O)C[C@@](O)(C(=O)CO)C[C@@H]3O[C@H]1C[C@H](NC(=O)[C@H](CC(C)C)NC(=O)[C@H](CC(N)=O)NC(=O)[C@H](C)NC(=O)[C@H](C)NC(=O)[C@H](CC(=O)O)NC(=O)CCOCCOCCNC(=O)CCCN2C(=O)C=CC2=O)[C@H](O)[C@H](C)O1 [QHL-066] ({Butanoyl(4-maleimido)-PEG2}-DAANL-{Doxorubicin(3'-N)}) | > 15
19 | COc1cccc2c1C(=O)c1c(O)c3c(c(O)c1C2=O)C[C@@](O)(C(=O)CO)C[C@@H]3O[C@H]1C[C@H](NC(=O)[C@H](CC(C)C)NC(=O)[C@H](CC(N)=O)NC(=O)[C@H](C)NC(=O)[C@H](C)NC(=O)[C@H](CCC(=O)O)NC(=O)CCOCCOCCOCCNC(=O)CCCN2C(=O)C=CC2=O)[C@H](O)[C@H](C)O1 [QHL-069] ({Butanoyl(4-maleimido)-PEG3}-EAANL-{Doxorubicin(3'-N)}) | > 25
20 | COc1cccc2c1C(=O)c1c(O)c3c(c(O)c1C2=O)C[C@@](O)(C(=O)CO)C[C@@H]3O[C@H]1C[C@H](NC(=O)[C@H](CC(C)C)NC(=O)[C@H](CC(N)=O)NC(=O)[C@H](C)NC(=O)[C@H](C)NC(=O)[C@H](CC(=O)O)NC(=O)CCOCCOCCOCCNC(=O)CCCN2C(=O)C=CC2=O)[C@H](O)[C@H](C)O1 [QHL-072] ({Butanoyl(4-maleimido)-PEG3}-DAANL-{Doxorubicin(3'-N)}) | > 25
21 | COc1cccc2c1C(=O)c1c(O)c3c(c(O)c1C2=O)C[C@@](O)(C(=O)CO)C[C@@H]3O[C@H]1C[C@H](NC(=O)[C@H](CC(C)C)NC(=O)[C@H](CC(N)=O)NC(=O)[C@H](C)NC(=O)[C@H](C)NC(=O)[C@H](CCC(=O)O)NC(=O)CCOCCOCCOCCOCCNC(=O)CCCN2C(=O)C=CC2=O)[C@H](O)[C@H](C)O1 [QHL-075] ({Butanoyl(4-maleimido)-PEG4}-EAANL-{Doxorubicin(3'-N)}) | > 25
22 | COc1cccc2c1C(=O)c1c(O)c3c(c(O)c1C2=O)C[C@@](O)(C(=O)CO)C[C@@H]3O[C@H]1C[C@H](NC(=O)[C@H](CC(C)C)NC(=O)[C@H](CC(N)=O)NC(=O)[C@H](C)NC(=O)[C@H](C)NC(=O)[C@H](CC(=O)O)NC(=O)CCOCCOCCOCCOCCNC(=O)CCCN2C(=O)C=CC2=O)[C@H](O)[C@H](C)O1 [QHL-078] ({Butanoyl(4-maleimido)-PEG4}-DAANL-{Doxorubicin(3'-N)}) | > 25

same assay, conditions: freeze-dried compound dissolved in water; observation and HPLC test (>95%)

Row | SMILES | solubility [mg/mL]
23 | COc1cccc2c1C(=O)c1c(O)c3c(c(O)c1C2=O)C[C@@](O)(C(=O)CO)C[C@@H]3O[C@H]1C[C@H](N)[C@H](O)[C@H](C)O1 [C1: DOX] | <1
